Measurements taken from patent US20090041744A1 (published 2009).

How the values were obtained:
FVIIa 407C [1] = target: T1, FVIIa 407C (human, UniProt P08709 61-212; P08709 213-466, N-glycosylated Asn322; engineered Cys407 is largely in mixed disulfides with glutathione, cysteine and homocysteine in the untreated preparation; whether the SPR sample was selectively reduced is not …); assay: SPR (Biacore 3000), biotinylated sTF E219C on SA chip, FVIIa as analyte; KD calculated from kon and koff
T1 construct: range 1-152;range 153-406; Recombinant, expressed in BHK cells; DNA construct as described in WO 02/077218 A1; Light and heavy chain are joined by a disulfide bond; also called Factor VIIa 407C; FVII 407C
T1 sequence (light): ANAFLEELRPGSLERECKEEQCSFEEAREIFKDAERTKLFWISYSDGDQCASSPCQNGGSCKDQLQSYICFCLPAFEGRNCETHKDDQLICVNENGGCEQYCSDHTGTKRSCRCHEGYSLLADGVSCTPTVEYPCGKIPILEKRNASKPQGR
T1 sequence (heavy): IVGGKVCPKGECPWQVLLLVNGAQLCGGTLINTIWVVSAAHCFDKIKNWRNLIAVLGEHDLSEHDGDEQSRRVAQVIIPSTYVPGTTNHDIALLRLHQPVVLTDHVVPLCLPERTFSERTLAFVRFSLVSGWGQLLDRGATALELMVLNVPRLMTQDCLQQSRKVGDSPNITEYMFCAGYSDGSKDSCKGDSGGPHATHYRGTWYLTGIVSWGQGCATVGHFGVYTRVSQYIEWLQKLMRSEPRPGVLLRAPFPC
Experimental: (§1) Surface plasmon resonance (SPR) analysis of the binding of FVIIa 407C, FVIIa 407C-PEG3.4 k-FVIIa 407C, and FVIIa 407C-PEG20k-FVIIa 407C to immobilized soluble tissue factor—Binding of FVIIa 407C and PEGylated variants to immobilized soluble tissue factor was analyzed by surface plasmon resonance analysis on a Biacore 3000 instrument (Biacore AB, Uppsala, Sweden). Prior to immobilization, sTF E219C was biotinylated at its free cysteine by reacting the protein with 2 mM biotin-PEO-iodoacetamide at pH 7.0 for 20 min. Excess reagent was subsequently removed by gelfiltration on a NAP™5 column (Amersham Biosciences AB, Uppsala, Sweden) equilibrated in HBS-P buffer (10 mM HEPES, 150 mM NaCl, 0.005% P20; Biacore AB, Uppsala, Sweden) containing 5 mM CaCl₂. Biotinylated sTF E19C was immobilized at a density of 2.2 fmol/mm² (˜50 RU) in flow cell 2 of a SA sensor chip (Biacore AB, Uppsala, Sweden). Kinetic analysis was performed at a flow rate of 30 μl/min in running buffer (HBS-P buffer containing 5 mM CaCl₂) using the untreated flow cell 1 for automatic in-line reference subtraction. Serial dilutions of protein from 100 nM to approx. 5 nM were analyzed. Following 3 min equilibration of the flow cells in running buffer, 90 μl protein sample was injected using the KINJECT command. The dissociation phase lasted 9 min and regeneration was performed with a 3-min pulse of 20 mM EDTA in HBS-P buffer. […]

[2] = target: T2, FVIIa 407C-PEG3.4k-FVIIa 407C (human, UniProt P08709 61-212; P08709 213-466, N-glycosylated Asn322; Cys407 of the two protomers cross-linked through maleimide-PEG3.4k-maleimide; 10 gamma-carboxylated glutamic acid (GLA) residues; O-glycosylated Ser52 and Ser60; N-glycosylated …); assay: SPR (Biacore 3000), biotinylated sTF E219C on SA chip, FVIIa dimer as analyte; KD calculated from kon and koff
T2 construct: range 1-152;range 153-406
T2 sequence (light): T1 sequence (light)
T2 sequence (heavy): T1 sequence (heavy)
Experimental: as §1

[3] = target: T3, FVIIa 407C-PEG20k-FVIIa 407C (human, UniProt P08709 61-212; P08709 213-466, N-glycosylated Asn322; Cys407 of the two protomers cross-linked through maleimide-PEG20k-maleimide; 10 gamma-carboxylated glutamic acid (GLA) residues; O-glycosylated Ser52 and Ser60; N-glycosylated …); assay: as above
T3 construct: range 1-152;range 153-406
T3 sequence (light): T1 sequence (light)
T3 sequence (heavy): T1 sequence (heavy)
Experimental: as §1

FVIIa 407C [4] = target: T1, FVIIa 407C; assay: SPR (Biacore 3000), biotinylated sTF E219C on SA chip, FVIIa as analyte, 5 mM CaCl2, 1:1 Langmuir fit
Experimental: as §1

[5] = target: T2, FVIIa 407C-PEG3.4k-FVIIa 407C; assay: SPR (Biacore 3000), biotinylated sTF E219C on SA chip, FVIIa dimer as analyte, 5 mM CaCl2, 1:1 Langmuir fit
Experimental: (§2) Surface plasmon resonance (SPR) analysis of the binding of FVIIa 407C, FVIIa 407C-PEG3.4 k-FVIIa 407C, and FVIIa 407C-PEG20k-FVIIa 407C to immobilized soluble tissue factor—Binding of FVIIa 407C and PEGylated variants to immobilized soluble tissue factor was analyzed by surface plasmon resonance analysis on a Biacore 3000 instrument (Biacore AB, Uppsala, Sweden). Prior to immobilization, sTF E219C was biotinylated at its free cysteine by reacting the protein with 2 mM biotin-PEO-iodoacetamide at pH 7.0 for 20 min. Excess reagent was subsequently removed by gelfiltration on a NAP™5 column (Amersham Biosciences AB, Uppsala, Sweden) equilibrated in HBS-P buffer (10 mM HEPES, 150 mM NaCl, 0.005% P20; Biacore AB, Uppsala, Sweden) containing 5 mM CaCl₂. Biotinylated sTF E19C was immobilized at a density of 2.2 fmol/mm² (˜50 RU) in flow cell 2 of a SA sensor chip (Biacore AB, Uppsala, Sweden). Kinetic analysis was performed at a flow rate of 30 μl/min in running buffer (HBS-P buffer containing 5 mM CaCl₂) using the untreated flow cell 1 for automatic in-line reference subtraction. Serial dilutions of protein from 100 nM to approx. 5 nM were analyzed. Following 3 min equilibration of the flow cells in running buffer, 90 μl protein sample was injected using the KINJECT command. The dissociation phase lasted 9 min and regeneration was performed with a 3-min pulse of 20 mM EDTA in HBS-P buffer. SPR data were fitted to a 1:1 Langmuir binding model using BIAevaluation 4.1 software (Biacore AB, Uppsala, Sweden).

[6] = target: T3, FVIIa 407C-PEG20k-FVIIa 407C; assay: as above
Experimental: as §2

Kd (FVIIa 407C [1]): 5.5 nM | Kd [2]: 0.4 nM | Kd [3]: 0.5 nM | koff (FVIIa 407C [4]): 0.0015 s⁻¹ | kon (FVIIa 407C [4]): 280000 M⁻¹ s⁻¹ | koff [5]: 0.00015 s⁻¹ | kon [5]: 350000 M⁻¹ s⁻¹ | koff [6]: 0.00016 s⁻¹ | kon [6]: 310000 M⁻¹ s⁻¹
B1: sTF (1-219) Glu219→Cys (E219C), biotinylated (receptor)
chain: SGTTNTVAAYNLTWKSTNFKTILEWEPKPVNQVYTVQISTKSGDWKSKCFYTTDTECDLTDEIVKDVKQTYLARVFSYPAGNVESTGSAGEPLYENSPEFTPYLETNLGQPTIQSFEQVGTKVNVTVEDERTLVRRNNTFLSLRDVFGKDLIYTLYYWKSSSSGKKTAKTNTNEFLIDVDKGENYCFSVQAVIPSRTVNRKSTDSPVECMGQEKGEFRC
modifications: Cys219 alkylated with biotin-PEO-iodoacetamide (biotinylated at its free cysteine) ; chain 1 pos 219: Cys alkylated with biotin-PEO-iodoacetamide (biotinylated at its free cysteine), written C. It was captured through this biotin on a streptavidin (SA) sensor chip.
notes: Immobilized on a streptavidin (SA) sensor chip at 2.2 fmol/mm^2 (~50 RU); also called sTF E219C; biotinylated sTF E19C
